{"source": "patent US20200369765A1", "about": "(INNATE PHARMA, published 2020)", "binders": {"B1": {"name": "mAbA H1L1 (antibody, V domains shown)", "VH": "QVQLVQSGAEVKKPGSSVKVSCKASGGTFSSYWMHWVRQAPGQGLEWMGEINPSNGHTNYNEKFESRVTITADESTSTAYMELSSLRSEDTAVYYCANGVESYDFDDALDYWGQGTTVTVSS", "VL": "DIQMTQSPSSLSASVGDRVTITCRASQDINNYLNWYQQKPGKAPKLLIYYTSRLHSGVPSRFSGSGSGTDYTFTISSLQPEDIATYYCQQGNTLPFTFGGGTKVEIK", "notes": "constant region not specified"}, "B2": {"name": "mAbA H0L0 (antibody, V domains shown)", "VH": "B1 VH with N98R", "VL": "B1 VL with Y71F", "notes": "constant region not specified"}, "B3": {"name": "mAbA H2L1 (antibody, V domains shown)", "VH": "B1 VH with G26Y, G27F", "VL": "B1 VL", "notes": "constant region not specified"}, "B4": {"name": "mAbA H3L1 (antibody, V domains shown)", "VH": "B1 VH with G26Y, G27F, E74R", "VL": "B1 VL", "notes": "constant region not specified"}, "B5": {"name": "mAbA H0L1 (antibody, V domains shown)", "VH": "B1 VH with N98R", "VL": "B1 VL", "notes": "constant region not specified"}, "B6": {"name": "mAbA H2L2 (antibody, V domains shown)", "VH": "B1 VH with G26Y, G27F", "VL": "B1 VL with P44I", "notes": "constant region not specified"}, "B7": {"name": "mAbA H3L2 (antibody, V domains shown)", "VH": "B1 VH with G26Y, G27F, E74R", "VL": "B1 VL with P44I", "notes": "constant region not specified"}, "B8": {"name": "mAbA H1L0 (antibody, V domains shown)", "VH": "B1 VH", "VL": "B1 VL with Y71F", "notes": "constant region not specified"}, "B9": {"name": "mAbA H0L2 (antibody, V domains shown)", "VH": "B1 VH with N98R", "VL": "B1 VL with P44I", "notes": "constant region not specified"}, "B10": {"name": "mAbA H3L0 (antibody, V domains shown)", "VH": "B1 VH with G26Y, G27F, E74R", "VL": "B1 VL with Y71F", "notes": "constant region not specified"}, "B11": {"name": "mAbA H1L2 (antibody, V domains shown)", "VH": "B1 VH", "VL": "B1 VL with P44I", "notes": "constant region not specified"}, "B12": {"name": "mAbA H2L0 (antibody, V domains shown)", "VH": "B1 VH with G26Y, G27F", "VL": "B1 VL with Y71F", "notes": "constant region not specified"}, "B13": {"name": "mAbD H1L1 (antibody, V domains shown)", "VH": "QVQLVQSGSELKKPGASVKVSCKASGYTFTDYSMHWVRQAPGQGLKWMGWIITETGEPTYADDFRGRFVFSLDTSVSTAYLQISSLKAEDTAVYYCARDFDGYWGQGTTVTVSS", "VL": "DIQMTQSPSSLSASVGDRVTITCRASENIYSYLAWYQQKPGKAPKFLIYNAKTLTEGVPSRFSGSGSGTDFTLTISSLQPEDFATYYCQHHYGFPWTFGGGTKVEIK", "notes": "constant region not specified"}, "B14": {"name": "mAbD H2L2 (antibody, V domains shown)", "VH": "B13 VH with Y95F", "VL": "B13 VL with S63R", "notes": "constant region not specified"}, "B15": {"name": "mAbD H0L1 (antibody, V domains shown)", "VH": "B13 VH with K46E", "VL": "B13 VL", "notes": "constant region not specified"}, "B16": {"name": "mAbD H2L1 (antibody, V domains shown)", "VH": "B13 VH with Y95F", "VL": "B13 VL", "notes": "constant region not specified"}, "B17": {"name": "mAbD H1L0 (antibody, V domains shown)", "VH": "B13 VH", "VL": "B13 VL with F46L", "notes": "constant region not specified"}, "B18": {"name": "mAbD H0L2 (antibody, V domains shown)", "VH": "B13 VH with K46E", "VL": "B13 VL with S63R", "notes": "constant region not specified"}, "B19": {"name": "mAbD H0L0 (antibody, V domains shown)", "VH": "B13 VH with K46E", "VL": "B13 VL with F46L", "notes": "constant region not specified"}, "B20": {"name": "mAbD H2L0 (antibody, V domains shown)", "VH": "B13 VH with Y95F", "VL": "B13 VL with F46L", "notes": "constant region not specified"}, "B21": {"name": "mAbD H1L2 (antibody, V domains shown)", "VH": "B13 VH", "VL": "B13 VL with S63R", "notes": "constant region not specified"}, "B22": {"name": "Fab1 (Fab of mAb1) (Fab, V domains shown)", "VH": "DVQLQESGPGLVKPSQSLSLTCTVTGYSITGGFAWNWIRQFPGNTLEWMGYIGYGGSTSYNPSLNSRISITRDTSKNHFFLQFNSVTTDDSATYYCARGDYLFAYWGQGTLVTVSA", "VL": "DIVMTQSHKFMSTSVGDRVSITCKASQDVNTAVAWYQQKPGQSPKLLIYSASYRYTGVPDRFTGSGSGTDFTFTISSVQAEDLAVYYCQQHYSTPRTFGGGTKLEIK"}, "B23": {"name": "Fab.E (Fab of mAbE) (Fab, V domains shown)", "VH": "DVQLVESGGGLVQPGGSRKLSCAASGFTFSTFGMHWVRQAPEKGLEWVAYISSGSNAIYYADTVKGRFTISRDNPKNTLFLQMTSLRSEDTAMYYCASPGYGAWFAYWGQGTLVTVSA", "VL": "ENVLTQSPAIMSASPGEKVTMTCRASSSVSSAYLHWYQQKSGASPKLWIYSTSNLASGVPARFSGSGSGTSYSLTISSVEAEDAATYYCQQYSAYPYTFGGGTKLEIK"}, "B24": {"name": "Fab.F (Fab of mAbF) (Fab, V domains shown)", "VH": "QVQLQQSGPEVVRPGVSVKISCKGSGYTFTDYSMHWVKQSHAKSLEWIGVISTYNGNTNYNQKFKGKATMTVDKSSSTAYMELARLTSEDSAIYYCARRGYYGSSSWFGYWGQGTLVTVSA", "VL": "DIVMTQSQKFMSTSVGDRVSVTCKASQNVGTDVAWYQQKPGQSPEALIYSASYRYSGVPDRFTGSGSGADFTLTISNVQSEDLAEYFCQQYNSFPYTFGGGTKLEIK"}, "B25": {"name": "Fab2 (Fab of mAb2) (Fab, V domains shown)", "VH": "B22 VH with D1E, D89E", "VL": "B22 VL", "notes": "Fab fragment of the antibody"}}, "note": "Where a chain is given by its changes, count along the chain named.", "data": [{"target": "T1, Human Siglec-9 (human, UniProt Q9Y336 18-463)", "T1 construct": "On transfected CHO cells; also on YTS and KHYG-1 transfectants, primary NK cells and moDC; also called huSiglec-9; CD329", "T1 sequence (Q9Y336 18-463)": "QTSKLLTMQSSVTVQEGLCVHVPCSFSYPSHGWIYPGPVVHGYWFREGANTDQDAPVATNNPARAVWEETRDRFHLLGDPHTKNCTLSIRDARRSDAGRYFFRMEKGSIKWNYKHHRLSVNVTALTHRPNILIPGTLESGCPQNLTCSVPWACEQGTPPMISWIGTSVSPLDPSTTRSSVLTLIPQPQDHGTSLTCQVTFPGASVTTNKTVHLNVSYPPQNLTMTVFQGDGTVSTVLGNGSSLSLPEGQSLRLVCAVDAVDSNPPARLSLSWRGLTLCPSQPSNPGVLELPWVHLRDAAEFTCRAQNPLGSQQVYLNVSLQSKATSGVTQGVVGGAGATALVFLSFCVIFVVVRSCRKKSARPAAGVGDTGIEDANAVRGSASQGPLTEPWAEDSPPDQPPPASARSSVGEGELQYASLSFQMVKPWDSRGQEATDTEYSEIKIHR", "assay": "flow cytometry, CHO Siglec-9 cells, mean n = 2", "description": "Binding of humanized antibodies was tested on CHO cells transfected with human Siglec-9, in a titration experiment by flow cytometry. Cells were incubated 90 minutes at 37° C. in Staining Buffer (SB) with primary antibodies at 10 ug/ml and a series of dilution of 1:10. They were washed three times with SB, then incubated 30 minutes with a goat F(ab′)² Anti-human IgG (Fc) PE. EC₅₀ values (μg/ml) for Siglec-9 expressing cells are shown below.", "units": {"EC50": "mg/L"}, "values": [{"binder": "B1", "EC50": 0.033}, {"binder": "B2", "EC50": 0.04}, {"binder": "B3", "EC50": 0.029}, {"binder": "B4", "EC50": 0.044}, {"binder": "B5", "EC50": 0.013}, {"binder": "B6", "EC50": 0.032}, {"binder": "B7", "EC50": 0.074}, {"binder": "B8", "EC50": 0.045}, {"binder": "B9", "EC50": 0.034}, {"binder": "B10", "EC50": 0.12}, {"binder": "B11", "EC50": 0.037}, {"binder": "B12", "EC50": 0.034}, {"binder": "B13", "EC50": 0.015}, {"binder": "B14", "EC50": 0.021}, {"binder": "B15", "EC50": 0.01}, {"binder": "B16", "EC50": 0.016}, {"binder": "B17", "EC50": 0.019}, {"binder": "B18", "EC50": 0.02}, {"binder": "B19", "EC50": 0.019}, {"binder": "B20", "EC50": 0.03}, {"binder": "B21", "EC50": 0.019}]}, {"target": "T2, Human Siglec-9 mutant M2 (human, UniProt Q9Y336 18-463)", "T2 construct": "Expressed on HEK293T cells; also called Mutant 2", "T2 sequence (Q9Y336 other isoform, or with tags, fused parts or gaps mutant)": "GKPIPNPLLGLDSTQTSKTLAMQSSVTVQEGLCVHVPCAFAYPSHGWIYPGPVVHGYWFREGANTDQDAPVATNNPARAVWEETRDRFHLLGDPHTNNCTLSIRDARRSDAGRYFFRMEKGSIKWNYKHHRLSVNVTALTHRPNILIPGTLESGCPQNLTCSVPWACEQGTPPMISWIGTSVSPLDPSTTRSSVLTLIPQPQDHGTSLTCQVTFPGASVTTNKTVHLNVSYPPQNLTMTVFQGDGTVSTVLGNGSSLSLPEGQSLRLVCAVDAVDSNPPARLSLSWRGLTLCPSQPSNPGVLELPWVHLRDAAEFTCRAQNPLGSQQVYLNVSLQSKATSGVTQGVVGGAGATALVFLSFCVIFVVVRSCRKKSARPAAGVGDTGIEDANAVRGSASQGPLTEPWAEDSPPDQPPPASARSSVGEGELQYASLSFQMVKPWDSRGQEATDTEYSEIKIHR", "assay": "flow cytometry, HEK293T transfectants", "values": [{"binder": "B22", "binding result": "binds"}, {"binder": "B23", "binding result": "binds"}, {"binder": "B24", "binding result": "binds"}]}, {"target": "T3, Human Siglec-9 mutant M5 (human, UniProt Q9Y336 18-463)", "T3 construct": "Expressed on HEK293T cells; also called Mutant 5", "T3 sequence (Q9Y336 other isoform, or with tags, fused parts or gaps mutant)": "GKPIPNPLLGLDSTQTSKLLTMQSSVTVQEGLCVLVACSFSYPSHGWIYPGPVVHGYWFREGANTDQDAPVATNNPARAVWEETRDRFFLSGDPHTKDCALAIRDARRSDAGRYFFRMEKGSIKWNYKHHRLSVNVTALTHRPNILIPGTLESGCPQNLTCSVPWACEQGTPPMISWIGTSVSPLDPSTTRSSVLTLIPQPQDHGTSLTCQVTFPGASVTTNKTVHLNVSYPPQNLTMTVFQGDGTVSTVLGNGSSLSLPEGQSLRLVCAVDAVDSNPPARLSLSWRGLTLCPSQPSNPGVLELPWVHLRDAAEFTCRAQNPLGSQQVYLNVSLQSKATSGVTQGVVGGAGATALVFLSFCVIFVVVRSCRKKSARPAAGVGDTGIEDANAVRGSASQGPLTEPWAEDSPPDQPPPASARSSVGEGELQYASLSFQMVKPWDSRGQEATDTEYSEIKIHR", "assay": "flow cytometry, HEK293T transfectants", "values": [{"binder": "B22", "binding result": "binds"}, {"binder": "B23", "binding result": "binds"}, {"binder": "B24", "binding result": "binds"}]}, {"target": "T4, Human Siglec-9 mutant M8 (human, UniProt Q9Y336 18-463)", "T4 construct": "Expressed on HEK293T cells; also called Mutant 8", "T4 sequence (Q9Y336 other isoform, or with tags, fused parts or gaps mutant)": "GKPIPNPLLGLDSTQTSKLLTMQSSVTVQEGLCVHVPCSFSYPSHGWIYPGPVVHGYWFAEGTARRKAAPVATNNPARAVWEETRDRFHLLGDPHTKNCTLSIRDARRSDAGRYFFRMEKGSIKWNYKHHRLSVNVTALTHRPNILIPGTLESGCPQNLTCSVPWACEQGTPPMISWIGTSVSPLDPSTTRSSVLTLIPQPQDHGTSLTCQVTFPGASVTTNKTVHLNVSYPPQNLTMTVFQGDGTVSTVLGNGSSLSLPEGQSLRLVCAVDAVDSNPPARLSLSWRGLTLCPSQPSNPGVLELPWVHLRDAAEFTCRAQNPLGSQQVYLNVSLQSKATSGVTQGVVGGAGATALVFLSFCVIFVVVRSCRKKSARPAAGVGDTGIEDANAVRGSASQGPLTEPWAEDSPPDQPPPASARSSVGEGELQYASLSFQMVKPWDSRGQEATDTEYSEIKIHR", "assay": "flow cytometry, HEK293T transfectants", "values": [{"binder": "B22", "binding result": "binds"}]}, {"target": "T5, Human Siglec-9 mutant M6 (human, UniProt Q9Y336 18-463)", "T5 construct": "Expressed on HEK293T cells; also called Mutant 6", "T5 sequence (Q9Y336 other isoform, or with tags, fused parts or gaps mutant)": "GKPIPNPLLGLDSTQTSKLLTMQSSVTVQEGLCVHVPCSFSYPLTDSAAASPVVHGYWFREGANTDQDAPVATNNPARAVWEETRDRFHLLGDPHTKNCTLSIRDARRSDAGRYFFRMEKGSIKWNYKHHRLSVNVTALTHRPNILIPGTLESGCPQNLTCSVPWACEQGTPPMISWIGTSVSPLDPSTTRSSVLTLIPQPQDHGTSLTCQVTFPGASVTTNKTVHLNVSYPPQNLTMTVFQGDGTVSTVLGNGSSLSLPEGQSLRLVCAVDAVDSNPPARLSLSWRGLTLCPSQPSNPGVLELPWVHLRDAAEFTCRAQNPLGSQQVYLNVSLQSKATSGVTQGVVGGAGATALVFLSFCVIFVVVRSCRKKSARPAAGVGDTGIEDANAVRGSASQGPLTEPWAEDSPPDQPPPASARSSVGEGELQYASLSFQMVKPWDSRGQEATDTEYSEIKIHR", "assay": "flow cytometry, HEK293T transfectants", "values": [{"binder": "B22", "binding result": "binds"}, {"binder": "B23", "binding result": "binds"}, {"binder": "B24", "binding result": "binds"}]}, {"target": "T6, Human Siglec-9 mutant M7 (human, UniProt Q9Y336 18-463)", "T6 construct": "Expressed on HEK293T cells; also called Mutant 7", "T6 sequence (Q9Y336 other isoform, or with tags, fused parts or gaps mutant)": "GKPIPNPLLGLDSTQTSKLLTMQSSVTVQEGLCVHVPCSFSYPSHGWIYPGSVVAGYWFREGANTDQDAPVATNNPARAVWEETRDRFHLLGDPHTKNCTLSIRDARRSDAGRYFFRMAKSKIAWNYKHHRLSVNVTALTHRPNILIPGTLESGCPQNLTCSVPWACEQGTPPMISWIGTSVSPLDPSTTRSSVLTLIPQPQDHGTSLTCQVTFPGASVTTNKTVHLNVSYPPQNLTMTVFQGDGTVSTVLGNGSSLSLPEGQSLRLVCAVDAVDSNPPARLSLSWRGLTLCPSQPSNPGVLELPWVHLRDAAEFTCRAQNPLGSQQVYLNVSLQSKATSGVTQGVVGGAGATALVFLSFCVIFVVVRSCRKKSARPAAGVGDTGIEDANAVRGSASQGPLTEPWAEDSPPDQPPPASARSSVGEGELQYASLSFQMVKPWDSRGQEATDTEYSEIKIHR", "assay": "flow cytometry, HEK293T transfectants", "values": [{"binder": "B22", "binding result": "binds"}, {"binder": "B23", "binding result": "binds"}, {"binder": "B24", "binding result": "binds"}]}, {"target": "T7, Siglec-7 Fc protein (human)", "T7 construct": "Produced in CHO cells; also called human Siglec-7 Fc", "T7 sequence (chain, as listed by the source limits assumed)": "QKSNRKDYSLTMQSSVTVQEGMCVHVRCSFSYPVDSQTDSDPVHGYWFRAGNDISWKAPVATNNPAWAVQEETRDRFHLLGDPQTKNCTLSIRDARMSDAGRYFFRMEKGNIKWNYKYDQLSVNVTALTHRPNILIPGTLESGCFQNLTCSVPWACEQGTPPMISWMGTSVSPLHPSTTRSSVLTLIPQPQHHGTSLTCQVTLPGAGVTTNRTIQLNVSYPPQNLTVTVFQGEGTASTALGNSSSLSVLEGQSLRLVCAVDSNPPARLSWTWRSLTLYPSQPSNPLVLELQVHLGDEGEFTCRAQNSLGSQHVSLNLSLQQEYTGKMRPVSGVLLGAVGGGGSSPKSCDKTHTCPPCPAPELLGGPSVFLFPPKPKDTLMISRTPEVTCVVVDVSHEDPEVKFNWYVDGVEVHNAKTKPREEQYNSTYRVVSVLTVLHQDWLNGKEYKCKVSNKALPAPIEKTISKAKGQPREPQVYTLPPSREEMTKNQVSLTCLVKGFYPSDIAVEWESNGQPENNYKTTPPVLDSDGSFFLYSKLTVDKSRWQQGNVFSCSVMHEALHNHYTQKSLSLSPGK", "assay": "SPR (Biacore T200), Fab over immobilized Siglec-7 Fc, 1:1 model", "description": "(§1) SPR measurements were performed on a Biacore™ T200 apparatus (Biacore™ GE Healthcare) at 25° C. In all Biacore™ experiments HBS-EP+(Biacore™ GE Healthcare) and NaOH 10 mM served as running buffer and regeneration buffer respectively. Sensorgrams were analyzed with Biacore™ T200 Evaluation software. Human siglec-9 and -7 multimeric proteins were cloned, produced and purified at Innate Pharma.\n(§2) Proteins were immobilized covalently to carboxyl groups in the dextran layer on a Sensor Chip CM5. The chip surface was activated with EDC/NHS (N-ethyl-N′-(3-dimethylaminopropyl) carbodiamide hydrochloride and N-hydroxysuccinimide (Biacore™ GE Healthcare). Proteins were diluted to 10 μg/ml in coupling buffer (10 mM acetate, pH 4.2 & 5.0) and injected until the appropriate immobilization level was reached (i.e., 600 to 2000RU). Deactivation of the remaining activated groups was performed using 100 mM ethanolamine pH 8 (Biacore™, GE Healthcare).\n(§3) The affinity study was carried out according to a standard Kinetic protocol recommended by the manufacturer (Biacore™ GE Healthcare kinetic wizard). […] The entire sensorgram sets were fitted using the 1:1 kinetic binding model. Monovalent affinities and kinetic association and dissociation rate constants are shown below in Table 2 below.", "units": {"Kd": "nM", "koff": "s⁻¹"}, "values": [{"binder": "B22", "Kd": 0.06, "koff": "4e-05"}, {"binder": "B25", "Kd": 0.07, "koff": "4e-05"}]}, {"target": "T8, Siglec-9 Fc protein (human)", "T8 construct": "Produced in CHO cells; also called human Siglec-9 Fc", "T8 sequence (chain, as listed by the source limits assumed)": "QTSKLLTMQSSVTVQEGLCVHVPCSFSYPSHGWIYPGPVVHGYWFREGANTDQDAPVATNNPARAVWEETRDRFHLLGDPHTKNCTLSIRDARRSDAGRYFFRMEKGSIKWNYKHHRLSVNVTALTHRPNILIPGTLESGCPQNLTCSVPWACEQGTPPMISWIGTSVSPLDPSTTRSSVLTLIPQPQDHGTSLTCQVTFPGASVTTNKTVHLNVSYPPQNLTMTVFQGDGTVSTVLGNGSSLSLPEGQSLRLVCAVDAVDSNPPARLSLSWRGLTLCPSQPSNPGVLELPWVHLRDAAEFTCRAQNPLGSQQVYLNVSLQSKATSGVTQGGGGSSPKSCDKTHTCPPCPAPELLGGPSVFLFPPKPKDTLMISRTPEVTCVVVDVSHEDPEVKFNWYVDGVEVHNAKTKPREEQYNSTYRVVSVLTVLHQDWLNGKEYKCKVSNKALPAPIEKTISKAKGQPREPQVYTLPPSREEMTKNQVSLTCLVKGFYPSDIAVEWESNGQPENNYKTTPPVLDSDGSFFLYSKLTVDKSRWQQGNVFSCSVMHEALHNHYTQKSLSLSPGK", "assay": "SPR (Biacore T200), Fab over immobilized Siglec-9 Fc, 1:1 model", "description": "as §1, §2, §3", "units": {"Kd": "nM", "koff": "s⁻¹"}, "values": [{"binder": "B22", "Kd": 0.4, "koff": 0.00016}, {"binder": "B25", "Kd": 0.8, "koff": 0.00017}, {"binder": "B23", "Kd": 1, "koff": 0.0019}, {"binder": "B24", "Kd": 1, "koff": 0.00046}]}, {"target": "T9, Human Siglec-9 mutant M11 (human, UniProt Q9Y336 18-463)", "T9 construct": "Expressed on HEK293T cells; also called Mutant 11", "T9 sequence (Q9Y336 other isoform, or with tags, fused parts or gaps mutant)": "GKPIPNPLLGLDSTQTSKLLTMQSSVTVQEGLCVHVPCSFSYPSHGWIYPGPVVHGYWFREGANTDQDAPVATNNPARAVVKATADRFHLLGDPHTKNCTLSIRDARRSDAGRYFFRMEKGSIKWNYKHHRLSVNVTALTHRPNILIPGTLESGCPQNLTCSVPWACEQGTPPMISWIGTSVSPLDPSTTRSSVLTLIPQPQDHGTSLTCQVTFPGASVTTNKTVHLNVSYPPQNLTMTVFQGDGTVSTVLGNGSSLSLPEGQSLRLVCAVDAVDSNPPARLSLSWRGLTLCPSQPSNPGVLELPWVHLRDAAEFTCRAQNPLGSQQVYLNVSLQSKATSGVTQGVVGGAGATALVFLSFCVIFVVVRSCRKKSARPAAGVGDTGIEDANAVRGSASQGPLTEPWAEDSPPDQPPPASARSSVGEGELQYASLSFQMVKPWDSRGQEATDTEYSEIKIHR", "assay": "flow cytometry, HEK293T transfectants; '-' indicates full loss of binding", "values": [{"binder": "B22", "binding result": "no binding"}, {"binder": "B23", "binding result": "no binding"}, {"binder": "B24", "binding result": "no binding"}]}]}
